This note sets out measurements from article PMC3713617.

Data set [1] addresses Helicobacter pylori ferric uptake regulator, wildtype (HpFurWT) (H. pylori) (UniProt O25671). Put plainly: cross-linking.
For data set [2], the target named is T1, HpFurWT (Helicobacter pylori, UniProt O25671 1-150).
T1 sequence: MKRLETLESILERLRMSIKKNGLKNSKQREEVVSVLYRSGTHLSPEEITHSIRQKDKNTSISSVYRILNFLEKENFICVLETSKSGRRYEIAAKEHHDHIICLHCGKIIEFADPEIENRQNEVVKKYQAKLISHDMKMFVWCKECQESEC
Put plainly: fluorescence anisotropy. (In general: Polarisation of emitted light reports the rotation of a fluorescent probe.)

For data set [3], the target named is T2, HpFurA92T (Helicobacter pylori, UniProt O25671 1-150, A92T).
T2 sequence: T1 sequence with A92T
Put plainly: fluorescence anisotropy.

For data set [4], the target named is T3, HpFurH134Y (Helicobacter pylori, UniProt O25671 1-150, H134Y).
T3 sequence: T1 sequence with H134Y
Put plainly: fluorescence anisotropy.

Data set [5] deals with T1, HpFurWT. Put plainly: fluorescence anisotropy. This is another data set of the same source.
Data set [6] has as its target T2, HpFurA92T. The experiment in a line: fluorescence anisotropy. The source holds these as a separate data set.
Data set [7] addresses T3, HpFurH134Y. Put plainly: fluorescence anisotropy. The source holds these as a separate data set.
Data set [8] addresses T4, HpFurE5A (Helicobacter pylori, UniProt O25671 1-150, E5A).
T4 sequence: T1 sequence with E5A
The experiment in a line: fluorescence anisotropy.

The target in data set [9] is T4, HpFurE5A. Put plainly: competition.
Data set [10] concerns the target T2, HpFurA92T. The experiment in a line: competition.

Where a chain is given by its changes, count along the chain named. Where two headings read alike, the source gives them in different places.

In general, stoichiometry N refers to the number of molecules, sites or subunits per partner or assembly. In general, Kd refers to a measure of binding affinity in units of concentration.

“Helicobacter pylori ferric uptake regulator, wildtype (HpFurWT) (from UniProt O25671 1-150) (natural protein)” gave a stoichiometry N in data set [1] of 2.

B1: pfr apo-Fur binding site duplex (dsDNA)
DNA 1: TTCATTATCATTTATGCTAT
DNA 2: ATAGCATAAATGATAATGAA
Turning to B1, the Kd with HpFurWT [2] was 43 ± 2 nM; with HpFurA92T [3], 13 ± 1 nM; in the data set with HpFurH134Y [4], 8 ± 1 nM.

B2: amiE Fur box duplex (dsDNA)
DNA 1: TGCCCCAATAATCATAATGATTAA
DNA 2: TTAATCATTATGATTATTGGGGCA
On to B2, for which the Kd with HpFurWT [5] was found to be 16 ± 2 nM; with HpFurA92T [6], 15 ± 2 nM; with HpFurH134Y [7], 6 ± 1 nM; in the data set with HpFurE5A [8] it was 2 ± 1 nM.

B3: amiE Fur box scrambled (GT repeats) (dsDNA)
DNA 1: TGCCCCGTGTGTGTGTGTGTATTAA
DNA 2: TTAATACACACACACACACGGGGCA
Consider B3, for which the binding result with HpFurE5A [9] was “no binding”.

B4: pfr scrambled (GT repeats) (dsDNA)
DNA 1: TTCATTAGTGTGTATGCTAT
DNA 2: ATAGCATACACACTAATGAA
On to B4, for which the binding result with HpFurA92T [10] was “no binding”.
